{
  "source": "paper PMC11649694",
  "about": "“ZBTB48 is a priming factor regulating B-cell-specific CIITA expression”",
  "biological_target": "T1, ZBTB48 ZnF10-11-C (Homo sapiens, UniProt P10074 548-620)",
  "T1 sequence": "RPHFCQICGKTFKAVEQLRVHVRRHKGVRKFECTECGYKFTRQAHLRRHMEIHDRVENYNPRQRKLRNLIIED",
  "assay": "X-ray crystallography; ZnF11 contacts G10G11G12; R614 contacts G12 and C8T9 of other strand; Pull-down: 150 mM NaCl, 50 mM Tris-HCl pH 7.5, 5 mM MgCl2, 0.5% Igepal CA-630, 1 mM DTT, 20 ug salmon sperm DNA, 4 C 2 h; crystals: 0.2 M imidazole malate pH 8.5, 20% PEG 4K, 20 C",
  "conditions": "protein: recombinant; tags: GST removed by TEV; 5' overhang 1 nt at both ends, 15 bp",
  "data": [
    {"binder": "CIITA e.2 crystal duplex (dsDNA) DNA 1: CACAAGTGAGGGATCA DNA 2: GTGATCCCTCACTTGT", "values": [
      {"measurement": "binding result", "value": "binds"}
    ]}
  ]
}
